{
  "source": "patent US6716811B1",
  "about": "“Compounds having affinity for the granulocyte-colony stimulating factor receptor (G-CSFR) and associated uses” (Affymax, Inc., priority 2000, dated 2004)",
  "molecules": {"B1": {"name": "Granulocyte-colony stimulating factor (protein)", "chain": "TPLGPASSLPQSFLLKCLEQVRKIQGDGAALQEKLCATYKLCHPEELVLLGHSLGIPWAPLSSCPSQALQLAGCLSQLHSGLFLYQGLLQALEGISPELGPTLDTLQLDVADFATTIWQQMEELGMAPALQPTQGAMPAFASAFQRRAGGVLVASHLQSFLEVSYRVLRHLAQP"}},
  "key": {"G-CSFR [1]": {"molecular_target": "T1, G-CSFR (Homo sapiens, UniProt Q99062)", "T1 sequence (Q99062 25-836)": "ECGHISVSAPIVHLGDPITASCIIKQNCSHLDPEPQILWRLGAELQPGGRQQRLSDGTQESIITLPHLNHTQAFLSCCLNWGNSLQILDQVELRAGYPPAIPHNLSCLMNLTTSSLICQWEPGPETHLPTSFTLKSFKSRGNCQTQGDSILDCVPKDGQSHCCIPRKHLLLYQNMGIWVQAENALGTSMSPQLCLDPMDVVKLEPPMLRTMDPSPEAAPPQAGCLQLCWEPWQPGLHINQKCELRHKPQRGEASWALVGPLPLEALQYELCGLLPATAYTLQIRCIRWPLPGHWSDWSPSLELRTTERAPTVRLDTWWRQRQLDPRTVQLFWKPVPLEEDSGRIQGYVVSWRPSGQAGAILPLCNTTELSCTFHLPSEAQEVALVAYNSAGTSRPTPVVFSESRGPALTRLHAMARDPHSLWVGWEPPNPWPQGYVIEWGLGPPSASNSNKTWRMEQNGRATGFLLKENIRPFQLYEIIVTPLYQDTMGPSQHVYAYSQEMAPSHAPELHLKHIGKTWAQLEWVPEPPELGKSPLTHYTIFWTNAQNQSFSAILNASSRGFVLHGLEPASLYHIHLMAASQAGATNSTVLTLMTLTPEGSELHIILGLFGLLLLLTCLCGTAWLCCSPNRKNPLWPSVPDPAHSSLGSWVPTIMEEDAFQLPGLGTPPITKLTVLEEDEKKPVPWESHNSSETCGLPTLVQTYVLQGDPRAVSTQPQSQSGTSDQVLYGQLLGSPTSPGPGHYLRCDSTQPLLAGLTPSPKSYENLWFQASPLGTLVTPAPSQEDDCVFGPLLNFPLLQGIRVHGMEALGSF", "experiment": "Ba/F3 G-CSFR reporter cell (fos promoter/luciferase) assay", "type": "cell-based", "parameters": "expression vectors encoding the full length human G-CSFR; expressed in transfected cells; host or cells: murine IL-3 dependent Ba/F3 cells", "method": "(§1) The bioactivity of selected peptides of the invention was measured in cell-based assays. […] Murine IL-3 dependent Ba/F3 cells were co-transfected with expression vectors encoding the full length human G-CSFR and a luciferase reporter gene controlled by the fos promoter.\nReporter cell assays were performed on the above cell line using peptides of the invention. The cells were maintained in complete RPMI-164Q media containing 10% fetal calf serum, 2 mM L-glutamine, 1X antibiotic-antimycotic solution (Life Technologies), and 10% WEHI-3 conditioned media (source of murine IL-3). For reporter assays, cells were starved overnight in medium which lacks WEHI-3 to reduce luciferase expression to background levels. The cells were then washed twice in PBS, resuspended in media which lacks WEHI-3 conditioned media, and added to wells of a 96-well microtiter plate containing dilutions of peptide or G-CSF at 5×10^4 cells/well. Plates were incubated for 2 hours at 37° C. in a humidified 5% CO2 incubator and luciferase activity was measured by the addition of luciferin (LucLite—Packard Biosciences) to each well. The plates were read in a TopCount (Wallac) microtiter plate luminometer.\nTo measure the ability of selected peptides of the invention to block G-CSF mediated receptor activation, dilutions of peptide were combined with Ba/F3 G-CSFR reporter cells as described above. After a 30-minute incubation at 37° C., G-CSF was added to each well. The cells were incubated for 2 hours at 37° C. and the amount of luciferase produced was measured as described above.\nLigand mediated G-CSF receptor activation in these cells results in the expression of luciferase, providing a detectable biological signal.\nA biosassay was used to measure the potency of AF15846 and other possible G-CSF receptor antagonists. This bioassay utilizes a Ba/F3 cell line containing the rhGCSF receptor and a c-fos promoter/luciferase gene construct (Ba/F3/rhGCSF-R/pFos-1cf). Competent binding of a ligand to the receptor results in expression of lucifierase as the biological readout."}, "[2]": {"experiment": "Stability in cell culture medium (NFS-60-conditioned medium)", "type": "in vitro ADME", "conditions": "overnight incubation in NFS-60-conditioned medium"}, "NFS-60 cells": {"system": "NFS-60 cells", "experiment": "Cell-based assays using NFS-60 cells", "parameters": "species or system Murine"}, "G-CSFR [3]": {"molecular_target": "T1, G-CSFR", "experiment": "Ba/F3 G-CSFR cell proliferation assay", "type": "cell-based", "parameters": "expression vectors encoding the full length human G-CSFR; expressed in transfected cells; host or cells: murine IL-3 dependent Ba/F3 cells", "conditions": "MBP fusion protein", "method": "as §1\n(§2) This is true for most of the MBP fusions tested. Presumably the fusion protein is dimerized through intermolecular disulfide bonds between cysteine residues present in the peptide sequence."}, "Parental Ba/F3 cells": {"system": "Parental Ba/F3 cells", "experiment": "Proliferation of parental Ba/F3 cells", "type": "cell-based, Murine"}, "[4]": {"molecular_target": "T2, human thrombopoietin receptor (Homo sapiens, UniProt P40238)", "T2 construct": "expressed in transfected cells; host or cells: Ba/F3 cells", "T2 sequence (P40238 26-635)": "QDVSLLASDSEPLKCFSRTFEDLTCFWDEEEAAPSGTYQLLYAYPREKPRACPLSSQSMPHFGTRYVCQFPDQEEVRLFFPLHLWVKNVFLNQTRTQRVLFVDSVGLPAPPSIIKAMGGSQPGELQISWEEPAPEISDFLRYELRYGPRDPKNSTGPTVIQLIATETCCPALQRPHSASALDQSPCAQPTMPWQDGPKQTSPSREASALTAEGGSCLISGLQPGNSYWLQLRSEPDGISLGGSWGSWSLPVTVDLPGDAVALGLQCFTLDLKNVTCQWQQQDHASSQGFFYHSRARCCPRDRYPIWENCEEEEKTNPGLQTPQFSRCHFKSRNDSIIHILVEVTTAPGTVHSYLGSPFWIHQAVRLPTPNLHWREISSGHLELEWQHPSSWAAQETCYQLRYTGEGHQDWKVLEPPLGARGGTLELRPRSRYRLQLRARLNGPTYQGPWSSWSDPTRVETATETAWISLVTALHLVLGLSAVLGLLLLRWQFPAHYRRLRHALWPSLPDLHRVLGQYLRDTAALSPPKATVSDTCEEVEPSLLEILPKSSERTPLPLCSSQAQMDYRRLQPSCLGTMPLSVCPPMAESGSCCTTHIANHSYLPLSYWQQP", "experiment": "Proliferation of Ba/F3 cells expressing the human thrombopoietin receptor", "type": "cell-based", "text": "as §2"}, "G-CSF receptor [5]": {"molecular_target": "T3, G-CSF receptor (Homo sapiens, UniProt Q99062)", "T3 sequence (Q99062 25-836)": "T1 sequence (Q99062 25-836)", "experiment": "ELISA format competitive G-CSF receptor-binding assay", "conditions": "HPLC fractions of oxidized AF15846", "text": "(§3) Several fractions containing oxidized AF15846 resulting from treatment under the conditions described above were collected subjected to testing in two assays: an ^125I-G-CSF competition binding assay and an ELISA format competitive G-CSF receptor-binding assay."}, "G-CSF receptor [6]": {"molecular_target": "T3, G-CSF receptor", "experiment": "125I-G-CSF competition binding assay of oxidized AF15846 fractions", "conditions": "HPLC fractions of oxidized AF15846; FIG. 4", "text": "as §3"}, "[7]": {"experiment": "Incubation of oxidized peptide at 37° C., HPLC pattern", "type": "physicochemical", "conditions": "pH 6.0 or pH 7.5, clean profiles only at pH 4.1", "method": "The oxidized peptide was also reacted with N-ethylmaleimide (NEM) at 37° C. for 1 hour in 100 mM ammonium acetate, pH 4.1 to see if any free Cys residues remained in the molecule. If this were the case, treatment with the alkylating reagent would result in a shift of the HPLC retention time. Upon incubation with NEM, no such shift was seen (FIG. 7). In contrast, when the oxidized peptide was incubated with the disulfide specific reducing agent TCEP, also in ammonium acetate, a shift to a later retention time, consistent with reduced peptide, was found. The reduced peptide was modified with NEM to produce a peptide that eluted even later than the reduced form.\nIt was necessary to drop to pH 4.1 to obtain clean profiles upon NEM treatment."}, "G-CSFR [8]": {"molecular_target": "T1, G-CSFR", "parameters": "made in house", "conditions": "read-out: observed affinity for its receptor; cited from earlier work"}},
  "note": "Where a SMILES comes first, the peptide text is derived from it. Where no end group is shown, it is not given here. MBP = maltose binding protein",
  "data": [
    {"molecule": "CC[C@H](C)[C@H](NC(=O)[C@H](CC(=O)O)NC(=O)[C@H](CC(C)C)NC(=O)[C@@H](N)CC(C)C)C(=O)N[C@@H](CS)C(=O)N[C@@H](CCC(=O)O)C(=O)N[C@@H](CC(C)C)C(=O)N[C@@H](CCCCN)C(=O)N[C@@H](CC(C)C)C(=O)N[C@@H](CCC(N)=O)C(=O)N[C@@H](CCC(=O)O)C(=O)N[C@@H](CS)C(=O)N[C@@H](C)C(=O)N[C@@H](CCCNC(=N)N)C(=O)N[C@@H](CCCNC(=N)N)C(=O)N[C@@H](CS)C(=O)N[C@@H](CC(N)=O)C(=O)O", "note": "[Example 53, LLDICELKLQECARRCN] (H-LLDICELKLQECARRCN-OH; N-terminus and C-terminus assumed)", "values": [
      {"measurement": "effect on G-CSF dose-response curve (luciferase)", "setting": "G-CSFR [1]; Ba/F3/rhGCSF-R/pFos-lcf, FIGS. 10A, 10B, 11", "value": "dose-response curve shifting to higher concentrations"},
      {"measurement": "effect on G-CSF response (luciferase)", "setting": "G-CSFR [1]; increasing concentrations of peptide added before G-CSF, FIG. 3", "value": "G-CSFR antagonist"}
    ]},
    {"molecule": "EQSNSGWVWV-NH2 [Example 74]", "values": [
      {"measurement": "stability in cell culture medium", "setting": "[2]", "value": "no loss of activity was observed"},
      {"measurement": "antagonist activity in cell-based assays", "setting": "NFS-60 cells", "value": "antagonist activity at high concentrations"}
    ]},
    {"molecule": "MBP fusion protein of Example 78: Example 78 peptide fused to the carboxy-terminus of the maltose binding protein (MBP); monomeric and dimeric species ({MBP}-LLDICELKLQECARRCN; cysteine pairing not given here; also: monomeric and dimeric species)", "values": [
      {"measurement": "concentration of maximal activity in Ba/F3 G-CSFR cell proliferation assay", "setting": "G-CSFR [3]", "value": 100, "unit": "nM"},
      {"measurement": "proliferation in response to fusion protein", "setting": "Parental Ba/F3 cells", "value": "did not proliferate"},
      {"measurement": "proliferation in response to fusion protein", "setting": "[4]", "value": "did not proliferate"}
    ]},
    {"molecule": "Tris-oxidized species: active oxidized dimer of AF15846 formed in 50 mM Tris, pH 8 (LLDICELKLQECARRCN; also: homodimer of two chains joined by three parallel interchain disulfides, disulfide at 5, other end not in the chain, disulfide at 12, other end not in the chain, disulfide at 16, other end not in the chain)", "values": [
      {"measurement": "activity of fractions in ELISA format competitive G-CSF receptor-binding assay", "setting": "G-CSF receptor [5]", "value": "highest activity"},
      {"measurement": "activity of fractions in 125I-G-CSF competition binding assay", "setting": "G-CSF receptor [6]", "value": "highest activity"},
      {"measurement": "stability on incubation at higher pH", "setting": "[7]", "value": "disulfide scrambling and/or degradation"}
    ]},
    {"molecule": "B1", "values": [
      {"measurement": "luciferase response of reporter cells", "setting": "G-CSFR [1]; ligand alone, FIG. 2", "value": "dose dependent manner"},
      {"measurement": "Kd", "setting": "G-CSFR [8]", "value": "~0.1", "unit": "nM"}
    ]}
  ]
}
